These results are taken from patent US20240400685A1.

For one assay, the target named is human CD20 (human) (UniProt P11836). Description: cell-based or functional assay.
Assay [1] concerns the target human CD3 epsilon (human) (UniProt P07766). As to the kind of experiment: cell-based or functional assay.

human CD3 epsilon (human), sequence (P07766 23-207): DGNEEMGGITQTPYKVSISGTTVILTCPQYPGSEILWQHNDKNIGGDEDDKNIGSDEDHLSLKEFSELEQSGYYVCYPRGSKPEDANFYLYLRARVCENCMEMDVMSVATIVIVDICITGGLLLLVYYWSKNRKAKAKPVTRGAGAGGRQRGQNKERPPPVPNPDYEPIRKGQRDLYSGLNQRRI
human CD20 (human), sequence (P11836 whole entry): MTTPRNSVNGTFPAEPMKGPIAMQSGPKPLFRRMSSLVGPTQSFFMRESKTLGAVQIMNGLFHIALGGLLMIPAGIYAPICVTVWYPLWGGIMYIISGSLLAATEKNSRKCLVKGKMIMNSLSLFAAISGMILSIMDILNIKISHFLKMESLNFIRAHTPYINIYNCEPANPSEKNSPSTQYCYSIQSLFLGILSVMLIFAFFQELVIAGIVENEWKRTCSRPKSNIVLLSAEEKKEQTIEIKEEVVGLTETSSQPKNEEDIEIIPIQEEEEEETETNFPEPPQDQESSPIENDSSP

“epcoritamab LMWS fraction (Fc+Fab fragment)”: the biological activity, T-cell activation assay (in the assay with human CD20 (human); in assay [1]) was 40% each time.
